The target of the assay is T1, human TTYH3 (Tweety homologue 3), detergent-solubilized and purified (human, UniProt Q9C0H2).
T1 construct: Tweety homologue 3 (TTYH3), human; gene (Genscript) cloned into the vector pcDXC3MS; Homodimer; source: HEK293 GNTI− cells, transiently transfected, purified in GDN (Strep-Tactin, SEC)
Kind of assay: SEC; TTYH2 or TTYH3 with a 1.6 molar excess of sybody on a Superose 6 Increase 5/150 GL column; sybody in the TTYH peak fractions detected by SDS–PAGE. Particulars: both partners purified.

The record followed here is publication PMC12328215, “Interactions between TTYH2 and APOE facilitate endosomal lipid transfer” (Nature, 2025).

T1 sequence (Q9C0H2 2-523): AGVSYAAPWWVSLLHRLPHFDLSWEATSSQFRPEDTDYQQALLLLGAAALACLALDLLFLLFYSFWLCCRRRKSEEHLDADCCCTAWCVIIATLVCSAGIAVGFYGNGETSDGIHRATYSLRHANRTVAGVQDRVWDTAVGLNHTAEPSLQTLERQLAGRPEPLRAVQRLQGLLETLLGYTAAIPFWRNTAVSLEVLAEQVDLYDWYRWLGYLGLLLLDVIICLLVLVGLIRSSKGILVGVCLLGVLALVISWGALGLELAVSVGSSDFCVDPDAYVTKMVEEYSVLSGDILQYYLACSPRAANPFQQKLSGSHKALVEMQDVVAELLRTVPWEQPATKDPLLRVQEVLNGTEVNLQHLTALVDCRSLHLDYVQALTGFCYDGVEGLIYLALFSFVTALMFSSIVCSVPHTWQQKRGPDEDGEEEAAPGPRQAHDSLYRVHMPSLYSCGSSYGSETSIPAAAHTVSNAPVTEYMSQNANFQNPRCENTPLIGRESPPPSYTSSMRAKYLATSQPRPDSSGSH

B1: sybody Sb1^TTYH2 (VHH)
VHH: QVQLVESGGGLVQAGGSLRLSCTASGFPVAFAQMKWYRQAPGKEREWVAAIWSMGNETTYADSVKGRFTISRDNAKNTVYLQMNSLKPEDTAVYYCAVEVGYGYHGQGTQVTVS
notes: synthetic nanobody from the concave library (short CDR3); also called Syb1; source: E. coli MC1061, periplasmic expression, purified (Ni-NTA, SEC)
With B1, the binding result was “no binding”.

B2: sybody Sb2^TTYH2 (VHH)
VHH: QVQLVESGGGLVQAGGSLRLSCAASGFPVTNDSMHWYRQAPGKEREWVAAIASQGRGTAYADSVKGRFTISRDNAKSTVYLQMNSLKPEDTAVYYCNVKDYGYDLQWYDYWGQGTQVTVS
notes: synthetic nanobody from the loop library (medium CDR3); For force spectroscopy immobilised on glass by the protocol used for APOE, or added soluble at 20–50 µM; also called Syb2; unlabelled Sb2; source: E. coli MC1061, periplasmic expression, purified (Ni-NTA, SEC)
B2: the binding result is listed as “no binding”.
